Source: patent US20030031664A1 (GENERAL HOSPITAL, published 2003)

Legend:
[1] = biological target: ferret α2-antiplasmin (ferret); experiment: cell-based or functional assay
[2] = biological target: T1, human alpha-2-antiplasmin (human, UniProt P08697 40-491, limits assumed, 125I-labelled in the radioimmunoassays; biotinylated in the competition assay of Example 5); experiment: cell-based or functional assay
T1 sequence (looked up): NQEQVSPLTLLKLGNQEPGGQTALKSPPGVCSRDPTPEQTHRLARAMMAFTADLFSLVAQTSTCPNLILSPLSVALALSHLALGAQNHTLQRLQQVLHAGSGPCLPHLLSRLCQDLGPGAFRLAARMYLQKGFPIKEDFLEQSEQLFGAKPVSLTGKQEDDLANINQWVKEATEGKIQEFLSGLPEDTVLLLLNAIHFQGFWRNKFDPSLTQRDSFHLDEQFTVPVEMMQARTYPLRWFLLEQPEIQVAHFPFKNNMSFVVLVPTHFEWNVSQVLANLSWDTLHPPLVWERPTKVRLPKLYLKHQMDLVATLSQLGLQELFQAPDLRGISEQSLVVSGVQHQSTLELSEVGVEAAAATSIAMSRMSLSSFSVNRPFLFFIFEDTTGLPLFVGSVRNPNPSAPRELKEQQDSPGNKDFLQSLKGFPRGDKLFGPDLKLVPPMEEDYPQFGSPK

B1: monoclonal antibody 77A3 (antibody, V domains shown)
VH: QIQLVQSGPELKKPGETVKISCKASGYTFTNYGMNWVKQAPGKGLKWMGWINTKSGEPTYAEEFKGRFAFSLETSASTANLQIKNLKNEDTATYFCARWVPGTYAMDYWGQGTSVTVSS
VL: DIQMTQSPASLSASVGETVTITCRASGNIHNYLAWYQQKQGKSPQLLVYNAKTLADGVPSRFSGSGSGTQFSLKINSLQPEDFGSHYCQHFWTTPWTFGGGTKLEIK
inhibition of ferret α2AP activity in plasma, ex vivo, 1 and 4 hours after 22.5 mg/kg i.v. (chromogenic plasmin inhibition assay) [1]: 75% | increase in potency of lysis by urokinase (dose response with and without MAb) [2]: ~100 fold
